From the supplement of paper PMC10567573
± gives the standard deviation.

Assay: protein stability index of a GFP-peptide fusion (GPS, HEK-293T) (PSI 1-6); higher = more stable
[1] = treatment: DMSO, c terminus: a fixed tail appended
[2] = treatment: MLN4924 1 uM, 8 h, c terminus: a fixed tail appended
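Also: 24-mer peptide tiles fused after GFP, lentivirally expressed, FACS-sorted into six equal bins by GFP/DsRed ratio, decoded by Illumina sequencing, PSI is the read-weighted mean bin number.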

| Sequence | protein stability index [1] | protein stability index [2] | protein stability index (treatment: DMSO, c terminus: native) | protein stability index (treatment: MLN4924 1 uM, 8 h, c terminus: native) |
| --- | --- | --- | --- | --- |
| VCSSNKPAIVEAGGMQALGLHLTD [CTNNB1] | 4.04 ± 0.087 | 3.89 ± 0.16 | – | – |
| SLVLILSLSYTVLIVGRIAIGVSI [SLC2A12] | 2.94 ± 0.2 | 3.41 ± 0.33 | – | – |
| TVVEEPVDITPYLDQLDESLRDKV [INTS3] | 5.12 ± 0.16 | 5.03 ± 0.33 | – | – |
| PSLEDLFDLCDRTFSLKTVLMIAI [CSNK1G3] | 2.5 ± 0.42 | 2.38 ± 0.43 | – | – |
| LAHAFQPGPGIGGDAHFDEDERWT [MMP1] | 4.73 ± 0.14 | 4.53 ± 0.21 | – | – |
| GASTSCLLPVQVVTEHPLELIRVE [PCDHGC5] | 3.12 ± 0.62 | 3.29 ± 0.37 | – | – |
| SKLKMLERKGWLAPSPGVKEQAIW [PKD2L1] | 2.26 ± 0.35 | 2.54 ± 0.3 | – | – |
| CWQGDPRVRPTFQEITSETEDLCE [RIPK4] | 4.44 ± 0.67 | 4.72 ± 0.24 | – | – |
| FSHSGRYIMTRDYLTVKVWDLNME [PPP2R2B] | 2.63 ± 0.49 | 2.3 ± 0.38 | – | – |
| ALQTLLTLIVVDASGLGLEITTQF [SLC19A2] | 3 ± 0.39 | 3.31 ± 0.56 | – | – |
| NATDPDEGTNGQLDYSFGDHTSEA [PCDHGC5] | 5.45 ± 0.32 | 5.24 ± 0.12 | – | – |
| RRPSPVLRHLELLDEFARENIDSL [SCNN1D] | 3.31 ± 0.51 | 3.56 ± 0.38 | – | – |
| AYHDPMLKLSIMSEEELTHIFGDL [NET1] | 3.28 ± 0.24 | 3.5 ± 0.48 | – | – |
| FCMFYAVLGIPLTLVMFQSLGERM [KCNK9] | 3.7 ± 0.32 | 2.95 ± 0.31 | – | – |
| RYTQGTGGDEVDDSVSVNDIDLSL [ZC3H15] | 5.27 ± 0.29 | 4.89 ± 0.13 | – | – |
| LTNIWMARTCAKQNINAPAPATTS [C22orf31] | 2.51 ± 0.27 | 2.59 ± 0.15 | – | – |
| GTIHALIFAWNKWIDIKQFVWYTP [STEAP1] | 3.28 ± 0.26 | 2.18 ± 0.11 | – | – |
| RRQCRPEIRMWQTREKAKFSDGEK [PHTF1] | 3.87 ± 0.29 | 4.23 ± 0.051 | – | – |
| STMLGVFREDPKTREEFLTLIRS [GCH1] | – | – | 2.38 ± 0.64 | 2.84 ± 0.34 |
| PEEVKSLDSNGAGEKSENNSSNSD [BCL2L13] | 5.84 ± 0.15 | 5.6 ± 0.23 | – | – |
| SWNNNDRSLNVFVKEDDKLIFHRH [SPSB1] | 3.17 ± 0.13 | 3.29 ± 0.21 | – | – |
| ILVYDIANRWSFDGIDRWIKEIDE [RAB40B] | 2.11 ± 0.57 | 1.93 ± 0.31 | – | – |

| Sequence | protein stability index [1] | protein stability index [2] | protein stability index (treatment: DMSO, c terminus: native) | protein stability index (treatment: MLN4924 1 uM, 8 h, c terminus: native) |
| --- | --- | --- | --- | --- |
| MFTSELSEKGKPYVDIQGLTASTM [KLHL12] | 2.54 ± 0.31 | 2.88 ± 0.46 | – | – |
| VDEVSVSLRLWDTFGDHHKDRRFA [RHOBTB1] | 3.01 ± 0.1 | 3.08 ± 0.2 | – | – |
| EGVAGKSGLEKEVQRLTSRAARDY [FCHSD1] | 4.69 ± 0.039 | 4.84 ± 0.09 | – | – |
| WSKTQVLDWISYQVEKNKYDASAI [ELF3] | 2.59 ± 0.2 | 2.48 ± 0.28 | – | – |
| PGARGLWKPPDIKGKLMVCYETLP [SPAG8] | 2.56 ± 0.26 | 2.51 ± 0.16 | – | – |
| TVVPLDDATQEYKEKLQKCLEPLE [TRIM39] | 5.27 ± 0.13 | 5.22 ± 0.21 | – | – |
| SLTLEDVAVDFTWEEWQFLSPAQK [ZNF649] | 3.83 ± 0.11 | 3.95 ± 0.12 | – | – |
| RRKDVCQAIDHGCEHICVNSDDSY [MATN2] | 4.34 ± 0.22 | 4.53 ± 0.33 | – | – |
| YYEMGIHCWDVAGAGIIVTEAGGV [IMPA1] | 2.21 ± 0.34 | 2.03 ± 0.37 | – | – |
| LGRTGLYPSYKVREKIETVKYPTY [FUT8] | 2.42 ± 0.12 | 2.51 ± 0.14 | – | – |
| STPQGKGEVVKIPSRVHGSLEPFR [PWWP2B] | 3.86 ± 0.16 | 4.03 ± 0.28 | – | – |
| ILIIRFEMPYNIWCDGCKNHIGMG [YJU2B] | 3.24 ± 0.36 | 2.96 ± 0.71 | – | – |
| ANLAASGGYAIAVVLLQGAELLLA [TSPAN10] | 2.97 ± 0.54 | 3.05 ± 0.92 | – | – |
| DYSREVNTTEELEALITDPDEMRM [FEM1A] | 5.11 ± 0.21 | 5.17 ± 0.18 | – | – |
| LKGSRVSILFGHENRVSTLRVSPD [GNB5] | 2.96 ± 0.15 | 3.02 ± 0.29 | – | – |
| GGIKTVDMRDPTYRPLKQELQGLD [SPSB1] | 4.18 ± 0.37 | 4.33 ± 0.27 | – | – |
| GEKPYECVQCGKSYSQSSNLFRHQ [ZNF24] | 2.4 ± 0.62 | 2.83 ± 0.56 | – | – |
| LKGYLYAVGGRNAAGELPTVECYN [KLHL13] | 2.37 ± 0.51 | 2.67 ± 0.34 | – | – |
| ASVVLPARELQEALPEAPAPLLPH [BCL2L13] | 4.34 ± 0.17 | 4.35 ± 0.22 | – | – |
| AEFILLGLLEAPGLQPVVFVLFLF [OR3A1] | 2.68 ± 0.32 | 2.95 ± 0.4 | – | – |
| GHSTDAREMSKTFIIGELHPDDRP [CYB5A] | 4.38 ± 0.15 | 4.66 ± 0.16 | – | – |
| LKDIHDDQDYLHSLGKARTAQVQK [FLOT1] | 4.67 ± 0.18 | 4.56 ± 0.24 | – | – |
